Results published in US8580321B2, “Method for reducing the effects of chemotherapy using flagellin related polypeptides” (priority 2003, dated 2013).

Legend:
[1] = format: in vivo, mouse; conditions: for antibody level at 21 day: 21 days after injection
Method: (§1) We tested the ability of AA′ to protect mice that were exposed to it. A group of 20 NIH-Swiss mice were subcutaneously injected with 5 μg/mouse (0.2 mg/kg) of AA′. A second injection of a equal dose of AA′ was administered after 21 (10 mice) and 28 days (another 10 mice), with the time elapsed being sufficient for formation of antibodies. The second injection of AA′ was followed by 13 Gy of whole-body gamma irradiation (1 h post-injection).
We also performed an ELISA determination of antibody titers in order to quantify the effect that AA′ has on the immune status of the organism. 96-well plates were coated with flagellin or AA′, […], […], and incubated overnight at +4° C. Blood serum samples collected from mice were added to the wells in several dilutions and incubated overnight followed by 6 hrs reaction with secondary goat anti-mouse IgG HPO-conjugate antibodies. Measurements were performed using a spectrophotometer with a 414 nm filter.

NIH-Swiss mice = format: in vivo, mouse; conditions: repeated administration
Description: Overall immunogenicity of a protein may determines its suitability for repeated use. Antibodies generated by immune system are capable of reducing the therapeutic activity of the protein and also may induce anaphylactic reaction upon second exposure if IgE antibodies are produced against the protein. Thus, any reduction in the amount and variety of antibodies compared to full-length flagellin is an improvement. Accordingly, after repeated introduction of flagellin or its fragments we monitored; a) efficiency of radioprotection afforded at second exposure; b) local and general allergic reactions; and c) antibody titer.
as §1

colonic crypts = assay: BrdU incorporation in colonic crypts; format: in vivo, mouse; conditions: BrdU injected 1 hour after CBLB502 i.p.
Method: The colon is much less radiosensitive than small intestine. To further examine the relationship between reduced proliferation in the small intestine and radioprotection, we determined the effect of CBLB502 on BrdU incorporation in the colon. CBLB502 or PBS was injected i.p. in mice, BrdU was injected 1 hour later and samples of […] were obtained after additional 1.5 hours (FIG. 34).

A549 cells = assay: Cell growth inhibition assay (methylene blue) after gamma-irradiation, A549; format: cell-based, human; conditions: 2 μg/ml, with or without 7 or 10 Gy, 72 hours
Method: Tumor cells were seeded in wells of three 96-well plates in 3 different densities (0.5×10^4, 1×10^4 and 2×10^4 cells/well, producing single-cell, spare or semi-contact layer). After cells had attached to plastic, CBLB502 (2 μg/ml) was added to the wells of non-irradiated cells, or 15 min prior to 7 Gy or 10 Gy of gamma-irradiation. Control wells received equal volume of vehicle (PBS). All points were done in quadruplicate. 72 hours after irradiation, medium was replaced with methylene blue in 50%-methanol and the relative numbers of viable cells in wells were measured using spectrophotometer at 650 nm. This experiment was also repeated with fixed dose of 1×10^4 A549 cells/well, CBLB502 was added 1 hour before 5, 10 or 15 Gy of gamma-irradiation (data not shown). We observed a similar effect of flagellin in all tested experiment conditions.

[2] = system: NIH Swiss mice treated with cisplatinum
[3] = system: MeI-7, MeI-29, HCT116, HT1080, NKE and MAEC cells; assay: Growth inhibition assay after gamma-irradiation in multiple cell lines; format: cell-based; conditions: 2 μg/ml, irradiated (10, 15 Gy) or not, 48 hours
Method: Based on the results using A549 cells, several additional tumor cell lines (human melanoma MeI-7 and MeI-29, colon cancer HCT116, […] HT1080), immortalized kidney epithelial cells (NKE) and normal mouse aortal endothelial cells (MAEC)) were tested in growth inhibition assay after 10 and 15 Gy of gamma-irradiation, as compared with intact control, with or without pretreatment with CBLB502. Cells were seeded in 96-well plates night before the treatments. CBLB502 (2 μg/ml) was added to the wells 4 hrs, 1 hr or 10 min before irradiation (all points were done in quadruplicate). 48 hours later, methylene blue staining was performed to determine the relative amount of the viable cells in the wells. The percent of growth inhibition was calculated from the OD650 in control non-irradiated wells, taken as 0% inhibition.

[4] = Cisplatinum-induced weight loss in FVB mice; format: in vivo, mouse; conditions: CBLB502 0.04 mg/kg s.c. 30 min prior to cisplatinum 10 mg/kg i.p., n=3
mice = assay: Acute toxicity in mice; format: in vivo, mouse; conditions: s.c. 0.5, 1, 2, 4 and 8 mg/kg, several days after administration
Method: The lethal dose of Salmonella flagellin is between 1 mg/kg (systemic inflammation) and 10 mg/kg (100% lethality). We subcutaneously administered increasing doses of AA′ to mice (4 mice per dose group) at 0.5, 1, 2, 4 and 8 mg/kg. Due to the lower (˜60%) molecular weight, 8 mg/kg of AA′ correspond to a molar-equivalent dose of 13.3 mg/kg of flagellin. […] The reduced toxicity may be sue to the absence of the central pro-inflammatory domain in the AA′ fragment.

[5] = Pharmacokinetics: plasma levels by sandwich ELISA; format: in vivo, mouse; conditions: ICR mice
Method: Pharmacokinetic parameters (effective concentration and the duration of drug the presence in the organism) may be important for route, dose and time of drug administration. The pharmacokinetics of CBLB502 (AA′) were thus tested for four common routes of injection: intravenous (i.v.), subcutaneous (s.c.), intraperitoneal (i.p.) or intramuscular (i.m.). A radioprotective dose of CBLB502 (AA′), 0.2 mg/kg, was injected in 12-15 week old ICR mice and plasma samples were collected at the specified times after injection (at least 3 mice/point). The levels of CBLB502 in plasma were measured by sandwich ELISA using known concentrations of CBLB502 spiked in the control ICR plasma for calibration.

[6] = CBLB502 0.04 mg/kg s.c. 30 min before cisplatinum 20 mg/kg i.p.

flagellin: Salmonella dublin FliC flagellin, 505 amino acids, SEQ ID NO: 1; recombinant full-length protein
antibody level at 21 day ([1]; serum): around 20 mg/ml | antibody level at 28 days ([1]; serum, 28 days after injection): around 20 mg/ml | local allergic reaction or anaphylaxis (NIH-Swiss mice): no local allergic reaction or anaphylaxis

AA′: flagellin fragment (1-177)-Linker-(402-505), SEQ ID NO: 8
BrdU incorporation in colon (colonic crypts): no effect | immunogenicity of the original protein removed ([1]; AA′ versus flagellin): > 95% | reduction of immunogenicity compared to the original protein ([1]; AA′ versus flagellin): approximately 25 × | increase of antibody level at 28 days over 21 day ([1]; serum): about 10% | antibody level at 21 day ([1]; serum): ~0.8 mg/mL | effect on cell numbers (A549 cells): no or slight effect | mean weight loss on any given day, cisplatinum 10 mg/kg with CBLB502 ([2]; CBLB502 0.04 mg/kg 30 min prior, n=11): ≤ 15% | weight response, cisplatinum 10 mg/kg with CBLB502 ([2]; CBLB502 0.04 mg/kg s.c. 30 min before cisplatinum 10 mg/kg i.p.): not losing weight | maximum weight loss, cisplatinum 20 mg/kg with CBLB502 [2, 6]: ≤ 20% | survival of animals, cisplatinum 20 mg/kg with CBLB502 [2, 6]: 100% | behavior, cisplatinum with single injection of CBLB502 ([2]; FIG. 39D): active animals | deaths, cisplatinum 10 mg/kg with CBLB502 ([2]; FIG. 39 experiment): No deaths | mice that died, cisplatinum 10 mg/kg with CBLB502 ([2]; death at Day 13, remaining mice survived to at least Day 30): one mouse out of eleven | effect on tumor cell growth [3]: no or only a slight inhibitory effect | mean weight loss compared to cisplatinum alone, FVB mice [4]: lower mean weight loss | detrimental effects (mortality, morbidity, systemic inflammation) (mice): no visible detrimental effects | time with significant (>5 ng/ml) levels in mouse plasma ([5]; 0.2 mg/kg intramuscular injection): > 3 h | disappearance from the bloodstream ([5]; 0.2 mg/kg intravenous injection): more rapid disappearance | levels and persistence in plasma by route ([5]; 0.2 mg/kg, intramuscular or intraperitoneal injection): highest levels and longest persistence | local allergic reaction or anaphylaxis (NIH-Swiss mice): no local allergic reaction or anaphylaxis
